The results in this text go back to paper PMC3873893.

For this assay, the target named is GST-WWCA (bovine N-WASP WWCA, A403-D505) (bovine) (UniProt Q95107).
Chain of UniProt Q95107 (Q95107 403-505): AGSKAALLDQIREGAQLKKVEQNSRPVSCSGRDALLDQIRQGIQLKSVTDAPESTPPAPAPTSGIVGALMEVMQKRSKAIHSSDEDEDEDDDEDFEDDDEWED

On to “rabbit skeletal muscle actin (Mg-ATP actin; filament barbed ends) (from UniProt P68135 1-377) (natural protein)”, for which the barbed-end rate of filaments tethered to WWCA nanofibers, 1 μM actin, 1 mM Mg^2+ turned out to be 21.4 subunits/s.
